Four molecules from patent publication US20240108653A1 (UNIVERSITY OF UTAH RESEARCH FOUNDATION, published 2024) can be followed below.

The target in this experiment is T1, Leucine-Rich Repeat and Ig Domain Protein 1 (LINGO1) (UniProt Q96FE5 42-620, limits assumed).
T1 construct: whole, on cells; It is endogenous on Ewing sarcoma cell lines and transduced in K562 cells
T1 sequence (looked up): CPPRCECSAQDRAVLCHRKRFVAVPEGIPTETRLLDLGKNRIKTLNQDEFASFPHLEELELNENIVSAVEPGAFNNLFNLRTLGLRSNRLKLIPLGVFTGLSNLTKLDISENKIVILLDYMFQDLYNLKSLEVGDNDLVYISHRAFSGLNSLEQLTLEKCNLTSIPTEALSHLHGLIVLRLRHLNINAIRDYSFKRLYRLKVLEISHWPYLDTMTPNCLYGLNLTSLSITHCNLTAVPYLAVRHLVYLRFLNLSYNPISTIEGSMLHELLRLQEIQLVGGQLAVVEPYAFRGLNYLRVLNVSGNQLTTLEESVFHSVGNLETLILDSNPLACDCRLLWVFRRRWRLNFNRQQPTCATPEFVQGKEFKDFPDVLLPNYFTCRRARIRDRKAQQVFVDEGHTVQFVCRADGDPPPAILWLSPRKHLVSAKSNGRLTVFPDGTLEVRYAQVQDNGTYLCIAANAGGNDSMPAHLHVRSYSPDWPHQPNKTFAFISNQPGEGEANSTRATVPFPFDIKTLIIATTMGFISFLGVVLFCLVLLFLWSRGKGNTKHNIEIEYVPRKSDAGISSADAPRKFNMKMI
The experiment in a line: flow cytometry on Ewing sarcoma cell lines; scFv detected with anti-FLAG/APC secondary antibody. On the procedure:
FIGS. 4A-4I show LINGO1-specific CAR T cells show cytotoxic activity against Ewing sarcoma. (FIG. 4A) mRNA expression of LINGO1 and GAPDH housekeeping gene in Ewing sarcoma cell lines and healthy brain tissue as determined by RT-PCR. (FIG. 4B) Schema of CAR construct and four LINGO1-specific scFv domains (FIG. 4C) Binding of LINGO1-specific scFvs at 5 µg/ml and secondary staining with an anti-FLAG/APC antibody (clone: L5). against Ewing sarcoma cell lines as determined by flow cytometry. Secondary antibody alone is shown in grey. (FIG. 4D) LINGO1 CAR surface expression on primary T cells after staining with an anti-HA/APC antibody as determined by flow cytometry. (FIG. 4E) IFNγ secretion as determined by ELISA and (FIG. 4F) anti-tumor activity as determined by luminescence-based cytotoxicity assay of CAR T cells expressing LINGO1 CAR variants after 24 h co-culture with A673 cells at an effector-target ratio of 1:1. (FIG. 4G) Expansion of LINGO1 CAR T cells based on Li81 VLVH and T cels expressing a CAR without a binding domain (ΔscFv). (FIG. 4H) IFNγ and IL2 production as determined by ELISA and (FIG. 4I) anti-tumor activity as determined by luminescence-based cytotoxicity assay by LINGO1 CAR T cells after 24 h co-culture with Ewing sarcoma cell lines at different effector-target ratios. Data represent mean±SD from 3 technical replicates. Statistical significance was determined by two-sided Student's t test.
CAR T cells targeting LINGO1 for the treatment of Ewing sarcoma were developed.
In general terms: A flow cytometer gives signals particle by particle.

B1: Li62 scFv, VLVH orientation (scFv)
scFv: DIQMTQSPSFLSASVGDSVAITCRASQDISRYLAWYQQRPGKAPKLLIYDASNLQTGVPSRFSGSGSGTDFTFTITSLQPEDFGTYYCQQYDTLHPSFGPGTTVDIKGGGGSGGGGSGGGGSEVQLLESGGGLVQPGGSLRLSCAASGFTFSIYPMFWVRQAPGKGLEWVSWIGPSGGITKYADSVKGRFTISRDNSKNTLYLQMNSLRAEDTATYYCAREGHNDWYFDLWGRGTLVTVSS
notes: It was detected with an anti-FLAG/APC antibody, so it carried a FLAG tag; also called Li62 VLVH; LINGO1-specific scFv
Take B1: the binding result is “binds”.

B2: Li81 scFv, VHVL orientation (scFv)
scFv: EVQLLESGGGLVQPGGSLRLSCAASGFTFSAYEMKWVRQAPGKGLEWVSVIGPSGGFTFYADSVKGRFTISRDNSKNTLYLQMNSLRAEDTAVYYCATEGDNDAFDIWGQGTTVTVSSGGGGSGGGGSGGGGSDIQMTQSPATLSLSPGERATLSCRASQSVSSYLAWYQQKPGQAPRLLIYDASNRATGIPARFSGSGSGTDFTLTISSLEPEDFAVYYCQQRSNWPMYTFGQGTKLEIK
notes: It was detected with an anti-FLAG/APC antibody, so it carried a FLAG tag; also called Li81 VHVL; LINGO1-specific scFv
Consider B2, for which the binding result is reported as “binds”.

B3: Li62 scFv, VHVL orientation (scFv)
scFv: EVQLLESGGGLVQPGGSLRLSCAASGFTFSIYPMFWVRQAPGKGLEWVSWIGPSGGITKYADSVKGRFTISRDNSKNTLYLQMNSLRAEDTATYYCAREGHNDWYFDLWGRGTLVTVSSGGGGSGGGGSGGGGSDIQMTQSPSFLSASVGDSVAITCRASQDISRYLAWYQQRPGKAPKLLIYDASNLQTGVPSRFSGSGSGTDFTFTITSLQPEDFGTYYCQQYDTLHPSFGPGTTVDIK
notes: It was detected with an anti-FLAG/APC antibody, so it carried a FLAG tag; also called Li62 VHVL; LINGO1-specific scFv
Regarding B3, the binding result is reported as “binds”.

B4: Li81 scFv, VLVH orientation (scFv)
scFv: DIQMTQSPATLSLSPGERATLSCRASQSVSSYLAWYQQKPGQAPRLLIYDASNRATGIPARFSGSGSGTDFTLTISSLEPEDFAVYYCQQRSNWPMYTFGQGTKLEIKGGGGSGGGGSGGGGSEVQLLESGGGLVQPGGSLRLSCAASGFTFSAYEMKWVRQAPGKGLEWVSVIGPSGGFTFYADSVKGRFTISRDNSKNTLYLQMNSLRAEDTAVYYCATEGDNDAFDIWGQGTTVTVSS
notes: It was detected with an anti-FLAG/APC antibody, so it carried a FLAG tag; also called Li81 VLVH; LINGO1-specific scFv
For the molecule B4, the binding result was “binds”.
